# Measurements: patent US20250002588A1 (DIAGONAL THERAPEUTICS, published 2025)
# Residue numbers refer to the chain shown, from its start.
# T1: human BMPRII protein (Sino Biological, #10551-H08H) (human, UniProt Q13873 27-150)
# T1 sequence (looked up): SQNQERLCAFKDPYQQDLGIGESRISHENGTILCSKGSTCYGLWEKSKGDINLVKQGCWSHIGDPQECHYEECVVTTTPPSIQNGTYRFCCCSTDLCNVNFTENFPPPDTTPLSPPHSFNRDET
# B1: DGL627 (bispecific antibody)
# chain 1: not shown
# chain 2: EVQLLESGGGLVQPGGSLRLSCAASGFTFSDYYMTWIRQAPGKGLEWVSSISGGSTYYADSRKGRFTISRDNSENTLYLQMNSLRAEDTAVYYCARDFGVAGWFGQYGMDVWGQGTLVTVSSGGGGSGGGGSGGGGSQSVLTQPPSASGTPGQRVTISCTGSSSNIGAGYDVHWYQQLPGTAPKLLIYRSNQRPSGVPDRFSGSKSGTSASLAISGLRSEDEADYYCSSYAGNYNLVFGGGTKLTVLDKTHTCPPCPAPEAAGAPSVFLFPPKPKDTLMISRTPEVTCVVVDVSHEDPEVKFNWYVDGVEVHNAKTKPREEQYNSTYRVVSVLTVLHQDWLNGKEYKCKVSNKALPAPIEKTISKAKGQPREPQVCTLPPSRDELTKNQVSLSCAVKGFYPSDIAVEWESNGQPENNYKTTPPVLDSDGSFFLVSKLTVDKSRWQQGNVFSCSVMHEALHNHYTQKSLSLSPGWSHPQFEK
# B2: DGL625 (bispecific antibody)
# chain 1: not shown
# chain 2: B1 chain 2
# B3: DGL628 (bispecific antibody)
# chain 1: not shown
# chain 2: B1 chain 2
# B4: DGL629 (bispecific antibody)
# chain 1: not shown
# chain 2: B1 chain 2
# B5: DGL635 (bispecific antibody)
# chain 1: B1 chain 2
# chain 2: not shown
# B6: DGL626 (bispecific antibody)
# chain 1: not shown
# chain 2: B1 chain 2
# B7: DGL633 (bispecific antibody)
# chain 1: not shown
# chain 2: EVQLLESGGGLVQPGGSLRLSCAASGFTFSNAWMNWVRQAPGKGLEWVSSISSSSSYIYYADSVKGRFTISRDNSKNTLYLQMNSLRAEDTAVYYCARAVAAGGMFWGLDQWGQGTLVTVTSSGGGGSGGGGSGGGGSQSVLTQPPSASGTPGQRVTISCSGSRSNIGSNSVHWYQQLPGTAPKLLIYGNSNRPSGVPDRFSGSKSGTSASLAISGLRSEDEADYYCQSYDSSLNDHVVFGGGTKLTVLDKTHTCPPCPAPEAAGAPSVFLFPPKPKDTLMISRTPEVTCVVVDVSHEDPEVKFNWYVDGVEVHNAKTKPREEQYNSTYRVVSVLTVLHQDWLNGKEYKCKVSNKALPAPIEKTISKAKGQPREPQVCTLPPSRDELTKNQVSLSCAVKGFYPSDIAVEWESNGQPENNYKTTPPVLDSDGSFFLVSKLTVDKSRWQQGNVFSCSVMHEALHNHYTQKSLSLSPGWSHPQFEK
# B8: DGL641 (bispecific antibody)
# chain 1: B7 chain 2
# chain 2: not shown
# B9: DGL649 (bispecific antibody)
# chain 1: B7 chain 2 with N31L, S55T
# chain 2: not shown
# B10: DGL634 (bispecific antibody)
# chain 1: not shown
# chain 2: B7 chain 2
# B11: DGL645 (bispecific antibody)
# chain 1: B7 chain 2 with A102G, G103T, G104S, F106W, W107Y
# chain 2: not shown
# B12: DGL644 (bispecific antibody)
# chain 1: B7 chain 2 with A99S, V100N, A101G, A102S, M105S, F106T, W107S, G108P, Q111L
# chain 2: not shown
# B13: DGL647 (bispecific antibody)
# chain 1: B7 chain 2 with M105F
# chain 2: not shown
# B14: DGL648 (bispecific antibody)
# chain 1: B7 chain 2 with M105L
# chain 2: not shown
# Target: ALK-1/BMPR-2 receptor pair of the PathHunter U2Os dimerization cells (DiscoverX 93-0962C3) (UniProt P37023 22-503; Q13873 27-1038)
# Sequence (P37023 22-503, one chain of several): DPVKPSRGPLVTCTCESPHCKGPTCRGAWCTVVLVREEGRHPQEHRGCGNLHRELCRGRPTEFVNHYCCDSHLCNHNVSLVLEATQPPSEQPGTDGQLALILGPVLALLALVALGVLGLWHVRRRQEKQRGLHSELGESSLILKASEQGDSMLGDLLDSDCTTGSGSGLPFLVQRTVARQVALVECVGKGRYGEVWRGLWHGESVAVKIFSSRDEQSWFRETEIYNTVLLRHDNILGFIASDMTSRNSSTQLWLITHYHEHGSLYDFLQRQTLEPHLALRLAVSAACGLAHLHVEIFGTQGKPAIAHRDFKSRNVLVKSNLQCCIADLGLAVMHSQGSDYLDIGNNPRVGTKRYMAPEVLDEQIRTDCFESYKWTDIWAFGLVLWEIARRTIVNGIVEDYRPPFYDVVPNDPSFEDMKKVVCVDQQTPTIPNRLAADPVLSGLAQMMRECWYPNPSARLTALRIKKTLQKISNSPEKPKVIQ
# Assay: cell-based or functional assay
% Emax BMP9 [%],Emax (RLU),Binder
14,502000,B1
17,615000,B2
24,884000,B3
12,424000,B4
141,2.61e+06,B5
7,258000,B6
32,586000,B7
76,1.41e+06,B8
35,648000,B9
16,288000,B10
19,353000,B11
8,153000,B12
79,1.46e+06,B13
78,1.45e+06,B14

# Target: human ALK1 protein (Sino Biological, #10066-H08H) (human, UniProt P37023 22-118)
# Sequence (P37023 22-118 limits assumed): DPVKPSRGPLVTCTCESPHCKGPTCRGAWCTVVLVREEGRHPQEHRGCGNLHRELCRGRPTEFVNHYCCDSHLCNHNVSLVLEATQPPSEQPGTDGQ
# Assay: ELISA, coated human ALK1
# Protocol: (§1) These binders were then tested using an ELISA assay. High binding plates (Corning, 9018) were coated with either 2 μg/ml of human BMPRII protein (Sino Biological, #10551-H08H) or 2 μg/ml of human ALK1 protein (Sino Biological, #10066-H08H) overnight at 4C. The plates were then washed three times with wash buffer (R&D Systems, WA126). […] The plates were then washed three times with wash buffer and DGL antibodies or controls, which were diluted with PBS and 0.1% BSA. The antibodies were incubated for one hour at room temperature and then the plates were washed three times with wash buffer. The plates were then incubated with mouse anti-human IgG Fc secondary—HRP (diluted with PBS/0.1% BSA); 100 ul per well at 2 μg/ml and incubated at room temperature for one hour. The plate was washed three times in wash buffer and then 100 ul TMB (R&D Systems, DY9998B, substrate reagent pack). After the wells turn blue, 50 ul of stop solution (R&D Systems, DY994) was added to each well and the absorbance of the plate was read at 450 nm. results can be found in Table 8.
Abs450 1 nM,Abs450 10 nM,Abs450 100 nM,Binder
0.05,0.07,0.07,B1
0.07,0.07,0.11,B2
0.05,0.12,0.52,B3
0.08,0.08,0.08,B4
0.09,0.29,1.17,B5
0.06,0.07,0.06,B6
0.15,0.78,1.42,B7
0.07,0.15,0.83,B8
0.07,0.18,0.81,B9
0.07,0.13,0.59,B11
0.06,0.1,0.54,B12
0.07,0.16,0.84,B13
0.08,0.17,0.8,B14

# Target: T1, human BMPRII protein (Sino Biological, …)
# Assay: ELISA, coated human BMPRII
# Protocol: as §1
Abs450 1 nM,Abs450 10 nM,Abs450 100 nM,Binder
0.15,0.22,0.66,B1
0.17,0.35,1.21,B2
0.17,0.27,0.8,B3
0.18,0.29,0.9,B4
0.15,0.33,1.17,B5
0.17,0.25,0.71,B6
0.12,0.14,0.37,B7
0.33,0.43,0.9,B8
0.3,0.32,0.76,B9
0.12,0.19,0.4,B10
0.23,0.21,0.16,B11
0.23,0.2,0.17,B12
0.25,0.51,1.9,B13
0.24,0.33,0.77,B14
